Molecular target: CD215 (IL-15Rα), CD122 (IL-15Rβ), and CD132 (IL-15Rγ) proteins expressed together on the HEK Blue cell line
Assay: cell-based or functional assay

- EC50 (nM), SEAP reporter at 620 nm, HEK Blue cell line: 0.007 nM
Substance: Wild-type IL-2 (from UniProt P60568 21-153) (ligand)

From patent publication EP4741426A1
